Data: patent US20240360203A1
Read-outs that look alike come from different tables or passages of the source.

Columns and labels:
Assay in all cases: cell-based or functional assay
[1] = target: SARS-CoV-2 D614G spike protein (SARS-CoV-2) (UniProt P0DTC2)
[2] = target: SARS-CoV-2 D614G spike protein (SARS-CoV-2) (UniProt P0DTC2); remark: listed apart in the source
[3] = target: SARS-CoV-2 D614G spike protein (SARS-CoV-2) (UniProt P0DTC2); remark: listed apart in the source
[4] = target: SARS-CoV-2 D614G spike protein (SARS-CoV-2) (UniProt P0DTC2); remark: listed apart in the source
[5] = target: SARS-CoV-2 D614G spike protein (SARS-CoV-2) (UniProt P0DTC2); remark: listed apart in the source
[6] = target: SARS-CoV-2 BA.4/5+K444T Spike on pseudovirus (SARS-CoV-2) (UniProt P0DTC2)
[7] = target: SARS-CoV-2 BA.5.8 + P1162L spike protein (SARS-CoV-2)
[8] = target: SARS-CoV-2 BA.1.1 + P1162S spike protein (SARS-CoV-2)

Sotrovimab VH/VL-huIgG1-LS (antibody)
pseudovirus neutralization EC50, Vero E6 (sotrovimab VH/VL-huIgG1-LS + isotype) [1]: 14 ng/mL
pseudovirus neutralization EC90, Vero E6 (sotrovimab VH/VL-huIgG1-LS + isotype) [2]: 170 ng/mL
pseudovirus neutralization Emax, Vero E6 (sotrovimab VH/VL-huIgG1-LS + isotype) (% neutralization) [3]: 98.3
pseudovirus neutralization EC80, Vero E6 (sotrovimab VH/VL-huIgG1-LS + isotype) [4]: 69 ng/mL
pseudovirus neutralization EC50, Vero E6 [5]: 35.2 ng/mL

Sotrovimab VH/VL-hamIgG2a (antibody)
pseudovirus neutralization EC50, Vero E6 [5]: 8.51 ng/mL

Sotrovimab VH/VL (human IgG1 molecule expressing the same variable regions of Sotrovimab) (antibody)
IC50, pseudovirus neutralization [6]: 304 ng/mL

Bebtelovimab (antibody)
pseudovirus neutralization EC50, Vero E6 (bebtelovimab + isotype) [1]: 0.29 ng/mL
IC50, pseudovirus neutralization [6]: 1220 ng/mL
pseudovirus neutralization EC90, Vero E6 (bebtelovimab + isotype) [2]: 11 ng/mL
pseudovirus neutralization Emax, Vero E6 (bebtelovimab + isotype) (% neutralization) [3]: 99.7
pseudovirus neutralization EC80, Vero E6 (bebtelovimab + isotype) [4]: 2.9 ng/mL
pseudovirus neutralization EC50 [5]: 0.57 ng/mL
pseudovirus neutralization EC50, TMPRSS2-Vero E6 (bebtelovimab + isotype) [5]: 1.7 ng/mL
pseudovirus neutralization EC50, Vero E6 (bebtelovimab + isotype) [5]: 0.64 ng/mL
pseudovirus neutralization EC80 [5]: 4.9 ng/mL
pseudovirus neutralization EC80, TMPRSS2-Vero E6 (bebtelovimab + isotype) [5]: 11 ng/mL
pseudovirus neutralization EC80, Vero E6 (bebtelovimab + isotype) [5]: 2.7 ng/mL
pseudovirus neutralization EC90 [5]: 18 ng/mL
pseudovirus neutralization EC90, TMPRSS2-Vero E6 (bebtelovimab + isotype) [5]: 32 ng/mL
pseudovirus neutralization EC90, Vero E6 (bebtelovimab + isotype) [5]: 6.1 ng/mL
pseudovirus neutralization Emax (% neutralization) [5]: 99.9
pseudovirus neutralization Emax, TMPRSS2-Vero E6 (bebtelovimab + isotype) (% neutralization) [5]: 99.4
pseudovirus neutralization Emax, Vero E6 (bebtelovimab + isotype) (% neutralization) [5]: 99.4
pseudovirus neutralization EC50 [7]: 0.13 ng/mL
pseudovirus neutralization EC80 [7]: 1.1 ng/mL
pseudovirus neutralization EC90 [7]: 3.7 ng/mL
pseudovirus neutralization Emax (% neutralization) [7]: 99.9
pseudovirus neutralization EC50 [8]: 0.12 ng/mL
pseudovirus neutralization EC80 [8]: 1.4 ng/mL
pseudovirus neutralization EC90 [8]: 6 ng/mL
pseudovirus neutralization Emax (% neutralization) [8]: 100

Sotrovimab VH/VL-huIgG1 (antibody)
pseudovirus neutralization EC50, Vero E6 [5]: 27.9 ng/mL
